From paper PMC5382271, “The conserved protein Seb1 drives transcription termination by binding RNA polymerase II and nascent RNA” (Nature Communications, 2017)
Where no end group is shown, it is not given here. FAM = 5'-fluorescein amidite

Key:
SUMO-RRM WT = target: T1, SUMO-RRM WT (Schizosaccharomyces pombe, UniProt Q9UTE3 388-540); assay: fluorescence anisotropy; 25 mM Tris-HCl pH 8.0, 100 mM NaCl, 2 mM MgCl2, 1 mM DTT, 16.7% glycerol, 0.1% IGEPAL, 0.1 mg/ml tRNA, 2.5% RNasin, 25 C, 40 nM FAM-RNA; details: protein: recombinant; tags: N-terminal His6-SUMO; single strand
T1 sequence: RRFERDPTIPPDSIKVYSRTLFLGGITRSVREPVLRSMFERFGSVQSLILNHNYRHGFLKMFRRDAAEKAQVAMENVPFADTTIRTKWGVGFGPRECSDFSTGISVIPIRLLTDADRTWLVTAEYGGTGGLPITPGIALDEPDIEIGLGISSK

SUMO-RRM F487A = target: T2, SUMO-RRM F487A (Schizosaccharomyces pombe, UniProt Q9UTE3 388-540, F487A); assay: as above; details: protein: recombinant; tags: N-terminal His6-SUMO; single strand
T2 sequence: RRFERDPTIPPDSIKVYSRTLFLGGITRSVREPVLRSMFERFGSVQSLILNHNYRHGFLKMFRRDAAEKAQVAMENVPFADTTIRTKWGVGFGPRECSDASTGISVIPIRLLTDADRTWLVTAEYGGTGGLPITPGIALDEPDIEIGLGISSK

SUMO-RRM R504E = target: T3, SUMO-RRM R504E (Schizosaccharomyces pombe, UniProt Q9UTE3 388-540, R504E); assay: as above; details: protein: recombinant; tags: N-terminal His6-SUMO; single strand
T3 sequence: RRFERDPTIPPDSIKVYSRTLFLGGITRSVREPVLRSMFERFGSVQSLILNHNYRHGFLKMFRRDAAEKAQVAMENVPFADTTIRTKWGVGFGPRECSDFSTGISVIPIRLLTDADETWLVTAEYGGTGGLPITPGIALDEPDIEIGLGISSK

SUMO-RRM R392E = target: T4, SUMO-RRM R392E (Schizosaccharomyces pombe, UniProt Q9UTE3 388-540, R392E); assay: as above; details: protein: recombinant; tags: N-terminal His6-SUMO; single strand
T4 sequence: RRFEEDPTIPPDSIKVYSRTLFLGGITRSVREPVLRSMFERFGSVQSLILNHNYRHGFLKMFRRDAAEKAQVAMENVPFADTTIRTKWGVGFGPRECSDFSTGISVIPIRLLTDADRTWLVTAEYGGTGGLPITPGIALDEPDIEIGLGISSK

SUMO-RRM F449A = target: T5, SUMO-RRM F449A (Schizosaccharomyces pombe, UniProt Q9UTE3 388-540, F449A); assay: as above; details: protein: recombinant; tags: N-terminal His6-SUMO; single strand
T5 sequence: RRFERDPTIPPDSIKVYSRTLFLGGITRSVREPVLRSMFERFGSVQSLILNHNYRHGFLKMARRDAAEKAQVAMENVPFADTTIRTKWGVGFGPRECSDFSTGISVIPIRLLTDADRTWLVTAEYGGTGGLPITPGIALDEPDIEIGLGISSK

SUMO-RRM R428E = target: T6, SUMO-RRM R428E (Schizosaccharomyces pombe, UniProt Q9UTE3 388-540, R428E); assay: as above; details: protein: recombinant; tags: N-terminal His6-SUMO; single strand
T6 sequence: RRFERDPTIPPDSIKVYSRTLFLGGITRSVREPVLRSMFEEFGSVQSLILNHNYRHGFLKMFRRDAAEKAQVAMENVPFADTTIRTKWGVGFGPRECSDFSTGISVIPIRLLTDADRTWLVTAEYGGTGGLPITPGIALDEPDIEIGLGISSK

SUMO-RRM K402A = target: T7, SUMO-RRM K402A (Schizosaccharomyces pombe, UniProt Q9UTE3 388-540, K402A); assay: as above; details: protein: recombinant; tags: N-terminal His6-SUMO; single strand
T7 sequence: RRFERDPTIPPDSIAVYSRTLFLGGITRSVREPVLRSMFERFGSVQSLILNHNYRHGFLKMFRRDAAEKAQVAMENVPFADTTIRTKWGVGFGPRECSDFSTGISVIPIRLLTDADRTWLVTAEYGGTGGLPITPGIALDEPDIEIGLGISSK

[1] = target: T8, Seb1-RRM388-540 (tag cleaved) (Schizosaccharomyces pombe, UniProt Q9UTE3 388-540); assay: as above; details: protein: recombinant; tags: His6-SUMO removed with 3C protease; single strand
T8 sequence: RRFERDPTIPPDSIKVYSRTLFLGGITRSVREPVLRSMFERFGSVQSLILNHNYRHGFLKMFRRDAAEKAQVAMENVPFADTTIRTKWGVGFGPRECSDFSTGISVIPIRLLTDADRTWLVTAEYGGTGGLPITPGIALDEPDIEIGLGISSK

SUMO-RRM R450A = target: T9, SUMO-RRM R450A (Schizosaccharomyces pombe, UniProt Q9UTE3 388-540, R450A); assay: as above; details: protein: recombinant; tags: N-terminal His6-SUMO; single strand
T9 sequence: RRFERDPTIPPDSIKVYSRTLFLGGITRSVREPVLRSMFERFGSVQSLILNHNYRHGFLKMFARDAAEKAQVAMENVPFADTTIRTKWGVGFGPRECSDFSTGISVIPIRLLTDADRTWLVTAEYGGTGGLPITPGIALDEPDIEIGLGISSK

SUMO-RRM S492A = target: T10, SUMO-RRM S492A (Schizosaccharomyces pombe, UniProt Q9UTE3 388-540, S492A); assay: fluorescence anisotropy; text: mild effect on binding; 25 mM Tris-HCl pH 8.0, 100 mM NaCl, 2 mM MgCl2, 1 mM DTT, 16.7% glycerol, 0.1% IGEPAL, 0.1 mg/ml tRNA, 2.5% RNasin, 25 C, 40 nM FAM-RNA; details: protein: recombinant; tags: N-terminal His6-SUMO; single strand
T10 sequence: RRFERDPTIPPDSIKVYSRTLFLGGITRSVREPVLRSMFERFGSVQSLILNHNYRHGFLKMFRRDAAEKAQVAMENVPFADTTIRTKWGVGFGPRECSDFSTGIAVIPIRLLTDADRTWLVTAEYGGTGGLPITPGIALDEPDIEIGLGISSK

SUMO-RRM R472E = target: T11, SUMO-RRM R472E (Schizosaccharomyces pombe, UniProt Q9UTE3 388-540, R472E); assay: fluorescence anisotropy; text: completely abolishes RNA binding; fitted Kd error exceeds value; 25 mM Tris-HCl pH 8.0, 100 mM NaCl, 2 mM MgCl2, 1 mM DTT, 16.7% glycerol, 0.1% IGEPAL, 0.1 mg/ml tRNA, 2.5% RNasin, 25 C, 40 nM FAM-RNA; details: protein: recombinant; tags: N-terminal His6-SUMO; single strand
T11 sequence: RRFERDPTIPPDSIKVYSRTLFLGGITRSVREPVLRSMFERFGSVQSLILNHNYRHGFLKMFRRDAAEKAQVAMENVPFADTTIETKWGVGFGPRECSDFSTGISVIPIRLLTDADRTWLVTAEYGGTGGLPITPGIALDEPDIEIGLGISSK

Seb1-CID(1-152) = target: T12, Seb1-CID(1-152) (S. pombe, UniProt Q9UTE3 1-152); assay: fluorescence polarisation; fluorescence anisotropy; Seb1-CID(1-152) titrated against 75 nM N-terminally FAM-tagged two-repeat CTD peptide; 25 mM HEPES pH 7.3, 200 mM NaCl, 1 mM EDTA; 25 °C; details: both partners purified
T12 construct: The full-length parent construct in pET41a(+) has a C-terminal His8 tag; also called CID WT; source: E. coli Rosetta, purified (Ni-NTA, size-exclusion chromatography)
T12 sequence (looked up): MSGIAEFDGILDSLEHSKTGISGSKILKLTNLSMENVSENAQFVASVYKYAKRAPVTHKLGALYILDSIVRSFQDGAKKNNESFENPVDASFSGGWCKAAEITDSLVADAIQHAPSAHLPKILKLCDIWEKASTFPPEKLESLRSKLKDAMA

[2] = target: T13, FAM-tagged two-repeat S2-phosphorylated CTD peptide; assay: fluorescence anisotropy (FA); details: chain shown with the change; read at the highest titration point, Seb1-CID 500 µM; parent: est. 110; read off a plot
T13 chain: YSPTSPSYSPTSPS

[3] = target: T14, FAM-tagged two-repeat S5-phosphorylated CTD peptide; assay: fluorescence anisotropy (FA); details: chain shown with the change; read at the highest titration point, Seb1-CID 500 µM; parent: est. 77; read off a plot
T14 chain: YSPTSPSYSPTSPS

[4] = target: T15, FAM-tagged two-repeat non-phosphorylated CTD peptide; assay: fluorescence anisotropy (FA); details: chain shown with the change; read at the highest titration point, Seb1-CID 500 µM; parent: est. 44; read off a plot
T15 chain: YSPTSPSYSPTSPS

[5] = target: FAM-tagged two-repeat S2-phosphorylated CTD peptide; assay: fluorescence polarisation; fluorescence anisotropy; Seb1-CID(1-152) titrated against 75 nM N-terminally FAM-tagged two-repeat CTD peptide; 25 mM HEPES pH 7.3, 200 mM NaCl, 1 mM EDTA; 25 °C
[6] = target: FAM-tagged two-repeat S5-phosphorylated CTD peptide; assay: as above
[7] = target: FAM-tagged two-repeat S7-phosphorylated CTD peptide; assay: as above

AUUAGUAAAA (ssRNA) [FAM-AUUAGUAAAA RNA]
Kd (SUMO-RRM WT): 1.72 ± 0.06 µM
Kd (SUMO-RRM F487A): 25.6 ± 15.7 µM
Kd (SUMO-RRM R504E): 2.37 ± 0.17 µM
Kd (SUMO-RRM R392E): 3.33 ± 0.53 µM
Kd (SUMO-RRM F449A): 1.99 ± 0.19 µM
Kd (SUMO-RRM R428E): 2.87 ± 0.85 µM
Kd (SUMO-RRM K402A): 2.49 ± 0.33 µM
Kd [1]: 1.84 ± 0.63 µM
Kd (SUMO-RRM R450A): 1.91 ± 0.71 µM
Kd (SUMO-RRM S492A): 4.2 ± 0.56 µM
Kd (SUMO-RRM R472E): 17.8 ± 27.5 µM

{FAM}-YSPTSPSYSPTSPS [FAM-tagged two-repeat non-phosphorylated CTD peptide]
Kd (Seb1-CID(1-152)): > 1000 µM

B1: Seb1-CID(1-152), Q9UTE3 K121E (protein)
chain: MSGIAEFDGILDSLEHSKTGISGSKILKLTNLSMENVSENAQFVASVYKYAKRAPVTHKLGALYILDSIVRSFQDGAKKNNESFENPVDASFSGGWCKAAEITDSLVADAIQHAPSAHLPEILKLCDIWEKASTFPPEKLESLRSKLKDAMA
response [2]: 47
response [3]: 47
response [4]: 34

B2: Seb1-CID(1-152), Q9UTE3 S22D; K25E; K124E (protein)
chain: MSGIAEFDGILDSLEHSKTGIDGSEILKLTNLSMENVSENAQFVASVYKYAKRAPVTHKLGALYILDSIVRSFQDGAKKNNESFENPVDASFSGGWCKAAEITDSLVADAIQHAPSAHLPKILELCDIWEKASTFPPEKLESLRSKLKDAMA
response [2]: 22
response [3]: 27
response [4]: 33

B3: Seb1-CID(1-152), Q9UTE3 K124E (protein)
chain: MSGIAEFDGILDSLEHSKTGISGSKILKLTNLSMENVSENAQFVASVYKYAKRAPVTHKLGALYILDSIVRSFQDGAKKNNESFENPVDASFSGGWCKAAEITDSLVADAIQHAPSAHLPKILELCDIWEKASTFPPEKLESLRSKLKDAMA
response [2]: 59
response [3]: 58
response [4]: 56

B4: Seb1-CID(1-152) (domain or fragment)
chain: MSGIAEFDGILDSLEHSKTGISGSKILKLTNLSMENVSENAQFVASVYKYAKRAPVTHKLGALYILDSIVRSFQDGAKKNNESFENPVDASFSGGWCKAAEITDSLVADAIQHAPSAHLPKILKLCDIWEKASTFPPEKLESLRSKLKDAMA
Kd [5]: 23.4 µM
Kd [6]: 83.7 µM
Kd [7]: 242 µM

B5: Seb1-CID(1-152), Q9UTE3 S22D; K25E (protein)
chain: MSGIAEFDGILDSLEHSKTGIDGSEILKLTNLSMENVSENAQFVASVYKYAKRAPVTHKLGALYILDSIVRSFQDGAKKNNESFENPVDASFSGGWCKAAEITDSLVADAIQHAPSAHLPKILKLCDIWEKASTFPPEKLESLRSKLKDAMA
response [2]: 72
response [3]: 46
response [4]: 28

B6: Seb1-CID(1-152), Q9UTE3 Y64K (protein)
chain: MSGIAEFDGILDSLEHSKTGISGSKILKLTNLSMENVSENAQFVASVYKYAKRAPVTHKLGALKILDSIVRSFQDGAKKNNESFENPVDASFSGGWCKAAEITDSLVADAIQHAPSAHLPKILKLCDIWEKASTFPPEKLESLRSKLKDAMA
response [2]: 65
response [3]: 40
response [4]: 20
